The results in this text go back to article PMC5972581 (2018).

The target in the assay is T1, GST-OsPGL1^46-604 (rice (Oryza sativa), UniProt B7EDM4).
T1 chain: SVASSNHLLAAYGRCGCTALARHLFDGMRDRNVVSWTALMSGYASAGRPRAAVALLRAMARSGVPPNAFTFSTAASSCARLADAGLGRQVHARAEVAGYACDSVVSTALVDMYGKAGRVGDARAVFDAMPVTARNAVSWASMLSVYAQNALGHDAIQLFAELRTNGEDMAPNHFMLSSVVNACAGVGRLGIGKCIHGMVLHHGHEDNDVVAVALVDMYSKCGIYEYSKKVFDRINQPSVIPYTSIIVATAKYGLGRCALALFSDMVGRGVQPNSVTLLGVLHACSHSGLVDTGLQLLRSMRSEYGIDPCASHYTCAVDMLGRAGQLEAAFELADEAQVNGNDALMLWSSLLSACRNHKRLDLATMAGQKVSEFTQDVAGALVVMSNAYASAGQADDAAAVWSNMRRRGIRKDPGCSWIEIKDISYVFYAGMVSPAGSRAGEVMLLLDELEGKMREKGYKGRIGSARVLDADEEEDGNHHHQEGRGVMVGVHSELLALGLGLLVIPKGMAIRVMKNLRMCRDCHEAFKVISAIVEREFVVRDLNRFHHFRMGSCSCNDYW
As to the kind of experiment: GST pull-down.

B1: Trx-OsMORF8-His (protein)
chain: MASASRFLLLSRLPAAAASSTSRLLRPLSAAGSLLPAALAPSAPRAAAAAARCFATQPATSSLRDSSPNWSNRPPKETILLDGCDFEHWLVVVEPPPGDPSNPEPTRDEIIDGYIKTLAQVVGSEEEARHKIYSVSTRHYFAFGALVSEELSYKLKELPKVRWVLPDSYLDVRNKDYGGEPFINGEAVPYDPKYHEEWVRNNARANERSRRNDRPRNFDRSRNFERRRENMQNFQNRDVPPGQGFNSPPPPGQGPVPPRDAPPMHHAQGNVPPPPPPNAGPPNYQPHAPNPQGYTNYQQGGAPGYQGGPPGYQGSNQGYQGPPPPPPSAYQGNNPGYQGGGPGYQGGNPPPYQGGNPGYAPGYHGQGGNPSYQQGGDNYNAGVPAYERDGQGRNYQ
In the case of B1, the binding result was “binds”.

B2: Trx-OsMORF9-His (protein)
chain: MASFPTTAAAAAAQAFAFALAPKPSSSAAAPSALFPRTAAAAAFPTLAVRGSGKARQPVVAAAAGAGTGSEQRETILLPGCDYNHWLIVMEFPKDPAPTREQMIDTYLNTLATVLGSMEEAKKNMYAFSTTTYTGFQCTVDEETSEKFKGLPGVLWVLPDSYIDVKNKDYGGDKYINGEIIPCTYPTYQPKERRTSKYESRRYERRRDGPPASRRPRPQTAQPESASSS
As for B2, the binding result is on record as “binds”.
